Measured values published in PMC3680417, “Phosphorylation of the Leukemic Oncoprotein EVI1 on Serine 196 Modulates DNA Binding, Transcriptional Repression and Transforming Ability”.

What was measured:
GST-Evi1 ZF1-7 S196A = GST-Evi1 ZF1-7 S196A (mouse, UniProt P14404-1 21-239, S196A); experiment: EMSA; EMSA as in cited ref. 6; native 5% acrylamide gel; buffer, salt, pH and temperature not stated; details: protein: recombinant; tags: GST (N-terminal, pGEX); label: 5' IRDye
GST-Evi1 ZF1-7 WT = GST-Evi1 ZF1-7 WT (mouse, UniProt P14404-1 21-239); experiment: as above; details: protein: recombinant; tags: GST (N-terminal, pGEX); label: 5' IRDye
Sequence of GST-Evi1 ZF1-7 WT (P14404 211-429): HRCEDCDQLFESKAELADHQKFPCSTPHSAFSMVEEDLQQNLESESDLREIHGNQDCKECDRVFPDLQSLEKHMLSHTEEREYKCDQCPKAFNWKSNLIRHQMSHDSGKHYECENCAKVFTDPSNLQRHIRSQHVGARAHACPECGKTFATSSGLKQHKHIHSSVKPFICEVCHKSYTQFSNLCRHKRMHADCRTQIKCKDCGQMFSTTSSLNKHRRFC

Sequence of GST-Evi1 ZF1-7 S196A (P14404 211-429 S386A): as the sequence (P14404 211-429) above, with S176A counted along it

B1: EVI1 ZF1-7 target EMSA probe (dsDNA)
DNA 1: ACCCATGGAGCTTTGAGCCCTGTTATCTTGTCAGGGAAGTGTACCATGGA
DNA 2: TCCATGGTACACTTCCCTGACAAGATAACAGGGCTCAAAGCTCCATGGGT
B1: binds (GST-Evi1 ZF1-7 S196A); binds (GST-Evi1 ZF1-7 WT).
